The source of these data is patent publication US9272016B2, “Methods to enhance RNAi oligonucleotide delivery to respiratory epithelial cells” (University of Iowa Research Foundation, priority 2012, dated 2016).

What all share (format): cell-based
The subject of test [1] is HPRT mRNA. The test can be described thus: Pretreatment of well-differentiated human airway epithelia before HPRT siRNA transfection, qPCR. The method, then:
(§1) For airway epithelia that were either well or poorly differentiated, transfection was done mostly according to the manufacturer's protocol. In all cases, the apical surface of epithelia was washed twice with PBS before adding the transfection mixture to the apical surface. The mixture was then left on the cells for 24 h for all transfection reagents. For PK1 cells, reverse transfection was performed in a 48-well plate by first adding the siRNA-RNAiMAX reagent mixture onto the plate and then adding the dispersed cells (40,000 cells) on top of the mixture and allowing the cells to adhere and establish growth for 24 h. […]
(§2) Total RNA was isolated using SV96 RNA isolation kit (Promega), according to manufacturer's protocol. […] One-fifteenth of the cDNA was then amplified and analyzed by Taqman assay in the 7900 Real Time PCR System (Applied Biosystems) using synthesized primer-probe pairs (IDT, Coralville, Iowa), reaction buffer and Immolase DNA polymerase (Bioline, Taunton, Mass.). […] Absolute quantification of an mRNA target sequence within an unknown sample was determined by reference to a standard curve. […]
(§3) Wortmannin was purchased from Sigma (St. Louis, Mo.) as a ready to use solution. […]
(Real-time PCR tracks product formation cycle by cycle.)

Test [2] relates to human airway epithelia. The test can be described thus: Confocal imaging of DIG-labeled siRNA uptake in human airway epithelia. The conditions noted are these: EGF 100 μg/ml for 15 min, imaged 2 h after transfection, vs untreated cells (data not shown). As for the experimental part:
The primary human airway epithelia grown at air-liquid interface were transfected with the DIG-labeled siRNA at a concentration of 250 ng/ml after complexing with Transductin. The transfection mixture was left on the apical surface for 2 h. At the end of this period, the cells were fixed in 2% formaldehyde, permeabilized in 0.2% Triton-x-100 and blocked in 1% BSA for 1 h. The cells were then stained with mouse antibody to DIG (Roche Biochemicals) for 1 h followed by either Alexa 488 labeled goat anti-mouse secondary antibody for 1 h followed by Alexa 488 labeled rabbit […] antibody (Invitrogen) for 1 or in some cases with Alexa 564 goat anti-mouse secondary antibody for 1 h. The cells were finally stained with nuclear stain, ToPro 3 for 10 minutes. The filter, containing the cells, was removed from the culture insert by cutting the edges with razor blade and then mounted onto a slide by the use of Vectashield. The slide was visualized by confocal microscopy.

Test [3] has as its system HPRT mRNA. The test can be described thus: Pretreatment of well differentiated pig airway epithelia before HPRT siRNA transfection, qPCR. The note with it: well differentiated PAE; KGF 50 ng/ml 24 h, EGTA 6 mM 30 m, LLnL 40 μM 24 hrs; then 250 nM HPRT siRNA with RNAiMAX or Transductin. The method, then: as §1, §2, §3

B1: EGF: human Epidermal Growth Factor (Sigma-Aldrich) (protein, UniProt P01133 23-1207, looked up)
Pro-epidermal growth factor: PQHWSCPEGTLAGNGNSTCVGPAPFLIFSHGNSIFRIDTEGTNYEQLVVDAGVSVIMDFHYNEKRIYWVDLERQLLQRVFLNGSRQERVCNIEKNVSGMAINWINEEVIWSNQQEGIITVTDMKGNNSHILLSALKYPANVAVDPVERFIFWSSEVAGSLYRADLDGVGVKALLETSEKITAVSLDVLDKRLFWIQYNREGSNSLICSCDYDGGSVHISKHPTQHNLFAMSLFGDRIFYSTWKMKTIWIANKHTGKDMVRINLHSSFVPLGELKVVHPLAQPKAEDDTWEPEQKLCKLRKGNCSSTVCGQDLQSHLCMCAEGYALSRDRKYCEDVNECAFWNHGCTLGCKNTPGSYYCTCPVGFVLLPDGKRCHQLVSCPRNVSECSHDCVLTSEGPLCFCPEGSVLERDGKTCSGCSSPDNGGCSQLCVPLSPVSWECDCFPGYDLQLDEKSCAASGPQPFLLFANSQDIRHMHFDGTDYGTLLSQQMGMVYALDHDPVENKIYFAHTALKWIERANMDGSQRERLIEEGVDVPEGLAVDWIGRRFYWTDRGKSLIGRSDLNGKRSKIITKENISQPRGIAVHPMAKRLFWTDTGINPRIESSSLQGLGRLVIASSDLIWPSGITIDFLTDKLYWCDAKQSVIEMANLDGSKRRRLTQNDVGHPFAVAVFEDYVWFSDWAMPSVMRVNKRTGKDRVRLQGSMLKPSSLVVVHPLAKPGADPCLYQNGGCEHICKKRLGTAWCSCREGFMKASDGKTCLALDGHQLLAGGEVDLKNQVTPLDILSKTRVSEDNITESQHMLVAEIMVSDQDDCAPVGCSMYARCISEGEDATCQCLKGFAGDGKLCSDIDECEMGVPVCPPASSKCINTEGGYVCRCSEGYQGDGIHCLDIDECQLGEHSCGENASCTNTEGGYTCMCAGRLSEPGLICPDSTPPPHLREDDHHYSVRNSDSECPLSHDGYCLHDGVCMYIEALDKYACNCVVGYIGERCQYRDLKWWELRHAGHGQQQKVIVVAVCVVVLVMLLLLSLWGAHYYRTQKLLSKNPKNPYEESSRDVRSRRPADTEDGMSSCPQPWFVVIKEHQDLKNGGQPVAGEDGQAADGSMQPTSWRQEPQLCGMGTEQGCWIPVSSDKGSCPQVMERSFHMPSYGTQTLEGGVEKPHSLLSANPLWQQRALDPPHQMELTQ
modifications: Pro-epidermal growth factor
Take B1: the “decrease in HPRT mRNA levels” value in test [1] (human airway cells, EGF 100 μg/ml for 15 min apically before siRNA-Transductin (250 nM), 3 donors) is 15-20%. In addition, the “siRNA uptake and knockdown” value in test [1] (pretreatment of the mucosal surface with EGF (200 μg/ml), well differentiated cells, species not stated) is “enhanced uptake and facilitated siRNA knockdown”. Moreover, the “uptake of the DIG signal” value in test [2] was “increased uptake”.

B2: KGF: Keratinocyte growth factor, a member of the fibroblast growth factor family (protein, UniProt P21781 32-194, looked up)
Fibroblast growth factor 7: CNDMTPEQMATNVNCSSPERHTRSYDYMEGGDIRVRRLFCRTQWYLRIDKRGKVKGTQEMKNNYNIMEIRTVAVGIVAIKGVESEFYLAMNKEGKLYAKKECNEDCNFKELILENHYNTYASAKWTHNGGEMFVALNQKGIPVRGKKTKKEQKTAHFLPMAIT
As to B2, the “silencing of HPRT mRNA after pretreatment” value in test [3] is given as “did not reduce”.
